# Test results published in patent US20250295799A1 (Zymeworks, published 2025).
# B1: H18L6_LC_G34D mAb, v40203 (antibody, human IgG1, kappa, V domains shown)
# VH: QVQLVQSGAEVKKPGSSVKVSCKASGYTFTDYEMHWVKQAPGHGLEWIGAIDPETGDTAYNQKFKGKATLTADTSTSTAYMELSSLRSEDTAVYYCTRYFSFAYWGQGTLVTVSS
# VL: EIVLTQSPATLSLSPGERATISCRSSQSLRHSNDNTYLQWYQQKPGQAPRLLIYKVSNRFSGVPARFSGSGSGTDFTLTISSLEPEDFAVYFCYQSKHVPYTFGGGTKVEIKR
# B2: H18L6_LC_G34R mAb, v40206 (antibody, human IgG1, kappa, V domains shown)
# VH: QVQLVQSGAEVKKPGSSVKVSCKASGYTFTDYEMHWVKQAPGHGLEWIGAIDPETGDTAYNQKFKGKATLTADTSTSTAYMELSSLRSEDTAVYYCTRYFSFAYWGQGTLVTVSS
# VL: EIVLTQSPATLSLSPGERATISCRSSQSLRHSNRNTYLQWYQQKPGQAPRLLIYKVSNRFSGVPARFSGSGSGTDFTLTISSLEPEDFAVYFCYQSKHVPYTFGGGTKVEIKR
# notes: Full-size IgG1/kappa
# B3: H18L6_LC_G34A mAb, v40212 (antibody, human IgG1, kappa, V domains shown)
# VH: QVQLVQSGAEVKKPGSSVKVSCKASGYTFTDYEMHWVKQAPGHGLEWIGAIDPETGDTAYNQKFKGKATLTADTSTSTAYMELSSLRSEDTAVYYCTRYFSFAYWGQGTLVTVSS
# VL: EIVLTQSPATLSLSPGERATISCRSSQSLRHSNANTYLQWYQQKPGQAPRLLIYKVSNRFSGVPARFSGSGSGTDFTLTISSLEPEDFAVYFCYQSKHVPYTFGGGTKVEIKR
# notes: M3-H18L6 chains with the stated light chain point mutation, IgG1/kappa
# B4: H18L6_LC_G34Q mAb, v40208 (antibody, human IgG1, kappa, V domains shown)
# VH: QVQLVQSGAEVKKPGSSVKVSCKASGYTFTDYEMHWVKQAPGHGLEWIGAIDPETGDTAYNQKFKGKATLTADTSTSTAYMELSSLRSEDTAVYYCTRYFSFAYWGQGTLVTVSS
# VL: EIVLTQSPATLSLSPGERATISCRSSQSLRHSNQNTYLQWYQQKPGQAPRLLIYKVSNRFSGVPARFSGSGSGTDFTLTISSLEPEDFAVYFCYQSKHVPYTFGGGTKVEIKR
# notes: Full-size IgG1/kappa
# B5: H18L6_LC_G34K mAb, v40207 (antibody, human IgG1, kappa, V domains shown)
# VH: QVQLVQSGAEVKKPGSSVKVSCKASGYTFTDYEMHWVKQAPGHGLEWIGAIDPETGDTAYNQKFKGKATLTADTSTSTAYMELSSLRSEDTAVYYCTRYFSFAYWGQGTLVTVSS
# VL: EIVLTQSPATLSLSPGERATISCRSSQSLRHSNKNTYLQWYQQKPGQAPRLLIYKVSNRFSGVPARFSGSGSGTDFTLTISSLEPEDFAVYFCYQSKHVPYTFGGGTKVEIKR
# notes: Full-size IgG1/kappa
# B6: H18L6_LC_G34E mAb, v40204 (antibody, human IgG1, kappa, V domains shown)
# VH: QVQLVQSGAEVKKPGSSVKVSCKASGYTFTDYEMHWVKQAPGHGLEWIGAIDPETGDTAYNQKFKGKATLTADTSTSTAYMELSSLRSEDTAVYYCTRYFSFAYWGQGTLVTVSS
# VL: EIVLTQSPATLSLSPGERATISCRSSQSLRHSNENTYLQWYQQKPGQAPRLLIYKVSNRFSGVPARFSGSGSGTDFTLTISSLEPEDFAVYFCYQSKHVPYTFGGGTKVEIKR
# notes: as for B3
# B7: M3-H18L6 (WT) mAb, v38592 (antibody, human IgG1, kappa)
# heavy: not shown
# light: EIVLTQSPATLSLSPGERATISCRSSQSLRHSNGNTYLQWYQQKPGQAPRLLIYKVSNRFSGVPARFSGSGSGTDFTLTISSLEPEDFAVYFCYQSKHVPYTFGGGTKVEIKRTVAAPSVFIFPPSDEQLKSGTASVVCLLNNFYPREAKVQWKVDNALQSGNSQESVTEQDSKDSTYSLSSTLTLSKADYEKHKVYACEVTHQGLSSPVTKSFNRGEC
# notes: Full-size IgG1/kappa; also called wild-type M3-H18L6; M3-H18L6 with HC C-terminal lysine
# What was measured:
# human glypican-3 (GPC3) [1] = molecular target: T1, human glypican-3 (GPC3) (human, UniProt P51654 25-554); experiment: cell-based or functional assay
# human glypican-3 (GPC3) [2] = molecular target: T1, human glypican-3 (GPC3); experiment: cell-based or functional assay; remark: listed apart in the source
# human glypican-3 (GPC3) [3] = molecular target: T1, human glypican-3 (GPC3); experiment: flow cytometry on JHH-5 cells (GPC3-mid);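 further: antibody binding to cells at 4 °C for 24 h, detected with anti-human AF647 as geometric mean fluorescence of live cells versus antibody concentration, fitted by specific binding with Hill slope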
# Description: (§1) Briefly, cells were seeded at 50,000 cells/well in V-bottom 96-well plates and treated with antibody for 24 hours at 4° C. to prevent internalization. […] Following incubation and washing, fluorescence was detected by flow cytometry on a BD LSRFortessa™ Cell Analyzer (BD Biosciences, Franklin Lake, NJ) with 1,000 minimum events collected per well. AF647/APC-A GeoMean (fluorescence signal geometric mean, proportional to anti-Human AF647 binding) in live cell population was plotted against antibody concentration using GraphPad Prism Version 9 (GraphPad Software, San Diego, CA). The Bmax, Curve Hill Slope (h) and Kd values were derived from the “Specific binding with Hill slope” nonlinear regression curve fit in GraphPad Prism Version 9.
# human glypican-3 (GPC3) [4] = molecular target: T1, human glypican-3 (GPC3); experiment: flow cytometry on JHH-7 cells (GPC3-high);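 further: antibody binding at 4 °C for 24 h, detected with anti-human AF647 secondary, geometric mean fluorescence of live cells versus antibody concentration, fitted as specific binding with Hill slope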
# Description: as §1
# human glypican-3 (GPC3) [5] = molecular target: T1, human glypican-3 (GPC3); experiment: flow cytometry on CHO-S cells transfected with human GPC3;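 further: antibody binding to transiently transfected CHO-S cells after 24 hours at 4 °C, read as geometric mean fluorescence of anti-human AF647 in live cells, fitted against antibody concentration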
# Description: (§2) Briefly, CHO—S cells were transiently transfected for −24 hours with a pTT5-based expression plasmid encoding human GPC3 or cynomolgus monkey GPC3, 0.5 μg DNA per 1 million cells, using the Neon™ Transfection System (Thermo Fisher Scientific Corp., Waltham, MA), to transiently express human or cynomolgus monkey GPC3. Cells transfected with GFP were used as negative transfection controls. Following transfection, cells were seeded at 50,000 cells/well in V-bottom 96-well plates and treated with antibody for 24 hours at 4° C. to prevent internalization. […] Following incubation and washing, fluorescence was detected by flow cytometry on a BD LSRFortessa™ Cell Analyzer (BD Biosciences, Franklin Lake, NJ) with 1,000 minimum events collected per well. AF647/APC-A GeoMean (fluorescence signal geometric mean, proportional to anti-Human AF647 binding) in live cell population was plotted against antibody concentration using GraphPad Prism Version 9 (GraphPad Software, San Diego, CA). The Bmax and Kd values were derived from the “Specific binding with Hill slope” nonlinear regression curve fit in GraphPad Prism Version 9.
# [6] = molecular target: T2, cynomolgus monkey glypican-3 (GPC3) (cynomolgus monkey, UniProt A5A6P7 25-554 (Pan troglodytes entry)); experiment: flow cytometry on CHO-S cells transfected with cynomolgus GPC3;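 further: antibodies incubated 24 h at 4 °C with transiently transfected cells, binding read as AF647 geometric mean fluorescence of live cells, GFP-transfected cells as negative control, Hill-slope specific-binding fit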
# T2 construct: Transiently expressed on CHO-S cells; also called cynoGPC3; CynoGPC3-CHO
# Description: as §2
# human glypican-3 (GPC3) [7] = molecular target: T1, human glypican-3 (GPC3); experiment: flow cytometry on JHH-5 cells; antibody in mouse plasma, day 0
# Description: (§3) For binding cells were seeded at 50,000 cells/well in V-bottom 96-well plates and treated with antibody for 24 hours at 4° C. to prevent internalization. […] Following incubation and washing, fluorescence was detected by flow cytometry on a BD LSRFortessa™ Cell Analyzer (BD Biosciences, Franklin Lake, NJ) with 1,000 minimum events collected per well. AF647/APC-A GeoMean (fluorescence signal geometric mean, proportional to anti-Human AF647 binding) in live cell population was plotted against antibody concentration using GraphPad Prism Version 9 (GraphPad Software, San Diego, CA). The Bmax, Curve Hill Slope (h) and Kd values were derived from the “Specific binding with Hill slope” nonlinear regression curve fit in GraphPad Prism Version 9.
# human glypican-3 (GPC3) [8] = molecular target: T1, human glypican-3 (GPC3); experiment: flow cytometry on JHH-7 cells; antibody in mouse plasma, day 0
# Description: as §3
# human glypican-3 (GPC3) [9] = molecular target: T1, human glypican-3 (GPC3); experiment: flow cytometry on JHH-5 cells; antibody after 14 days in mouse plasma at 37 C
# Description: as §3
# human glypican-3 (GPC3) [10] = molecular target: T1, human glypican-3 (GPC3); experiment: flow cytometry on JHH-7 cells; antibody after 14 days in mouse plasma at 37 C
# Description: as §3
# Wherever JHH-5 Internalization (MFI) is given: test concentration or dose not given here.
# Wherever JHH-5 Internalization (MFI), Day 0 in mouse plasma is given: test concentration or dose not given here.
# Wherever JHH-5 Internalization (MFI), Day 14 in mouse plasma is given: test concentration or dose not given here.
# Wherever JHH-7 Internalization (MFI) is given: test concentration or dose not given here.
# Wherever JHH-7 Internalization (MFI), Day 0 in mouse plasma is given: test concentration or dose not given here.
# Wherever JHH-7 Internalization (MFI), Day 14 in mouse plasma is given: test concentration or dose not given here.
Binder,JHH-5 Internalization (MFI) (human glypican-3 (GPC3) [1]),JHH-7 Internalization (MFI) (human glypican-3 (GPC3) [1]),"JHH-5 Internalization (MFI), Day 0 in mouse plasma (human glypican-3 (GPC3) [2]) [MFI]","JHH-5 Internalization (MFI), Day 14 in mouse plasma (human glypican-3 (GPC3) [2]) [MFI]","JHH-7 Internalization (MFI), Day 0 in mouse plasma (human glypican-3 (GPC3) [2]) [MFI]","JHH-7 Internalization (MFI), Day 14 in mouse plasma (human glypican-3 (GPC3) [2]) [MFI]",Bmax (MFI) (human glypican-3 (GPC3) [3]),Kd (human glypican-3 (GPC3) [3]) [nM],Bmax (MFI) (human glypican-3 (GPC3) [4]),Kd (human glypican-3 (GPC3) [4]) [nM],Bmax (MFI) (human glypican-3 (GPC3) [5]),Kd (human glypican-3 (GPC3) [5]) [nM],Bmax (MFI) [6] [MFI],Kd [6] [nM],Bmax (MFI) (human glypican-3 (GPC3) [7]),Kd (human glypican-3 (GPC3) [7]) [nM],Bmax (MFI) (human glypican-3 (GPC3) [8]),Kd (human glypican-3 (GPC3) [8]) [nM],Bmax (MFI) (human glypican-3 (GPC3) [9]),Kd (human glypican-3 (GPC3) [9]) [nM],other results
B1,6770,5010,8690,5690,104,63,4280,0.24,12200,0.4,2470,0.18,2870,0.18,4660,0.11,9140,0.26,4520,0.34,Bmax (MFI) (human glypican-3 (GPC3) [10]): 8060 MFI; Kd (human glypican-3 (GPC3) [10]): 0.62 nM
B2,10700,9240,13300,11100,144,115,4910,0.19,12500,0.34,2450,0.1,2850,0.13,5450,0.07,9390,0.15,5320,0.21,Bmax (MFI) (human glypican-3 (GPC3) [10]): 9710 MFI; Kd (human glypican-3 (GPC3) [10]): 0.39 nM
B3,9070,8070,10200,7290,131,75,3850,0.31,13300,0.56,2200,0.12,3160,0.25,4930,0.15,8360,0.36,6050,0.23,Bmax (MFI) (human glypican-3 (GPC3) [10]): 11300 MFI; Kd (human glypican-3 (GPC3) [10]): 0.28 nM
B4,9510,8920,10500,9980,131,106,4360,0.16,11600,0.44,2280,0.11,2820,0.15,4730,0.11,8910,0.32,5640,0.15,Bmax (MFI) (human glypican-3 (GPC3) [10]): 11000 MFI; Kd (human glypican-3 (GPC3) [10]): 0.23 nM
B5,10000,8760,12800,11400,143,115,4740,0.2,12200,0.39,2330,0.11,2930,0.16,5490,0.07,9620,0.16,6460,0.26,Bmax (MFI) (human glypican-3 (GPC3) [10]): 10900 MFI; Kd (human glypican-3 (GPC3) [10]): 0.31 nM
B6,5770,4410,7100,6040,91,73,4140,0.17,12500,0.42,2260,0.11,2870,0.15,4760,0.11,8500,0.26,4460,0.26,Bmax (MFI) (human glypican-3 (GPC3) [10]): 8430 MFI; Kd (human glypican-3 (GPC3) [10]): 0.67 nM
B7,10500,7260,12200,7250,152,76,4670,0.12,14100,0.42,2530,0.14,3150,0.19,5130,0.14,9770,0.39,,,
